Laboratory results reported in PMC8629192 (bioRxiv, 2021).

Biological target: SARS-CoV-2 spike RBD-Fc recombinant protein (used for ELISA) (SARS-CoV-2, UniProt P0DTC2)
Experiment: ELISA

B1: LRRC15-His (natural protein)
chain: YHGCPSECTCSRASQVECTGARIVAVPTPLPWNAMSLQILNTHITELNESPFLNISALIALRIEKNELSRITPGAFRNLGSLRYLSLANNKLQVLPIGLFQGLDSLESLLLSSNQLLQIQPAHFSQCSNLKELQLHGNHLEYIPDGAFDHLVGLTKLNLGKNSLTHISPRVFQHLGNLQVLRLYENRLTDIPMGTFDGLVNLQELALQQNQIGLLSPGLFHNNHNLQRLYLSNNHISQLPPSVFMQLPQLNRLTLFGNSLKELSPGIFGPMPNLRELWLYDNHISSLPDNVFSNLRQLQVLILSRNQISFISPGAFNGLTELRELSLHTNALQDLDGNVFRMLANLQNISLQNNRLRQLPGNIFANVNGLMAIQLQNNQLENLPLGIFDHLGKLCELRLYDNPWRCDSDILPLRNWLLLNQPRLGTDTVPVCFSPANVRGQSLIIINVNVAVPSVHVPEVPSYPETPWYPDTPSYPDTTSVSSTTELTSPVEDYTDLTTIQVTDDRSVWGMTQAQSG
- binding result: binds
